Changes are numbered by the printed parent chain. Where no end group is shown, it is not given here.
B1: 19-36 CONH2 (peptide)
peptide: SGGVVKNNFVPTNVGSKA-NH2
notes: also called human α-CGRP 19-36, amidated at the C-terminus
B2: human α-CGRP 1-13-COOH (peptide)
peptide: ACDTATCVTHRLA-OH
modifications: ends and bridges not checked
B3: human α-CGRP 1-19-COOH (peptide)
peptide: ACDTATCVTHRLAGLLSRS-OH
modifications: ends and bridges not checked
B4: Human amylin (1-37) (peptide)
peptide: KCNTATCATQRLANFLVHSSNNFGAILSSTNVGSNTY-NH2
modifications: ends and bridges not checked
B5: Human calcitonin (1-32) (peptide)
peptide: CGNLSTCMLGTYTQDFNKFHTFPQTAIGVGAP-NH2
modifications: ends and bridges not checked
B6: Human adrenomedullin (1-52) (peptide)
peptide: YRQSMNNFQGLRSFGCRFGTCTVQKLAHQIYQFTDKDKDNVAPRSKISPQGY-NH2
modifications: ends and bridges not checked
B7: antibody G1 Fab fragment (Fab, V domains shown)
VH: EVQLVESGGGLVQPGGSLRLSCAASGFTFSNYWISWVRQAPGKGLEWVAEIRSESDASATHYAEAVKGRFTISRDNAKNSLYLQMNSLRAEDTAVYYCLAYFDYGLAIQNYWGQGTLVTVSS
VL: EIVLTQSPATLSLSPGERATLSCKASKRVTTYVSWYQQKPGQAPRLLIYGASNRYLGIPARFSGSGSGTDFTLTISSLEPEDFAVYYCSQSYNYPYTFGQGTKLEIK

What was measured:
[1] = target: B7; assay: Biacore competition: G1 Fab 50 nM pre-incubated 1 h with 10 uM peptide, then over biotinylated human α-CGRP on SA chip
From the text: (§1) Y axis represents percentage of binding blocked by the presence of the competing peptide compared with the binding in the absence of the competing peptide.
(§2) All these peptides are amidated at the C-terminus.

[2] = target: human α-CGRP 19-36-COOH (human, Table 4: free C-terminus (COOH); paragraph 375 calls it amidated at the C-terminus); assay: Biacore peptide competition (FIG. 6)
From the text: as §1, §2

[3] = target: B3; assay: Biacore peptide competition (FIG. 6)
From the text: as §1, §2

[4] = target: B2; assay: Biacore peptide competition (FIG. 6)
From the text: as §1, §2

[5] = target: B5; assay: Biacore peptide competition (FIG. 6)
From the text: as §1, §2

[6] = target: B4; assay: Biacore peptide competition (FIG. 6)
From the text: as §1, §2

[7] = target: B6; assay: Biacore peptide competition (FIG. 6)
From the text: as §1, §2

[8] = target: T1, human α-CGRP 26-37 (human); assay: Biacore: 50 nM G1 Fab with 10 uM competing peptide in solution, over human α-CGRP on chip
T1 peptide: NFVPTNVGSKAF-NH2
From the text: as §1, §2

[9] = target: T2, rat α-CGRP (1-37) (rat, C-terminal amide; N-terminal biotin when captured on the SA chip); assay: as above
T2 construct: also called rat α (1-37); α-rat
T2 peptide: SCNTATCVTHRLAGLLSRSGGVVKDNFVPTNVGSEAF
From the text: as §1, §2

[10] = target: T3, human β-CGRP (1-37) (human, not fully specified; C-terminal amide; N-terminal biotin when captured on the SA chip); assay: as above
T3 construct: also called human β (1-37)
T3 peptide: T2 peptide with S1A, V22M, D25S, E35K
From the text: as §1, §2

[11] = target: T4, rat β-CGRP (1-37) (rat, C-terminal amide; N-terminal biotin when captured on the SA chip); assay: as above
T4 construct: also called rat β (1-37)
T4 peptide: T2 peptide with E35K
From the text: as §1, §2

[12] = target: T5, human α-CGRP 8-37 (human, C-terminal amide); assay: as above
T5 peptide: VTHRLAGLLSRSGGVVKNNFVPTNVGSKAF
From the text: as §1, §2

[13] = target: T6, human α-CGRP P29A (19-37) (human); assay: as above
T6 peptide: SGGVVKNNFVATNVGSKAF-NH2
From the text: as §1, §2

[14] = target: T7, human α-CGRP K35A (19-37) (human, not fully specified); assay: as above
T7 peptide: SGGVVKNNFVPTNVGSAAF-NH2
From the text: as §1, §2

[15] = target: T8, human α-CGRP K35E (19-37) (human, not fully specified); assay: as above
T8 peptide: SGGVVKNNFVPTNVGSEAF-NH2
From the text: as §1, §2

[16] = target: T9, human α-CGRP K35M (19-37) (human, not fully specified); assay: as above
T9 peptide: SGGVVKNNFVPTNVGSMAF-NH2
From the text: as §1, §2

[17] = target: T10, human α-CGRP 1-36-COOH (human, free C-terminus (not amidated)); assay: as above
T10 construct: also called 1-36 (not amidated at the C-terminus)
T10 peptide: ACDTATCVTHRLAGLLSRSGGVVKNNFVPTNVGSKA

B1 was tested, and the “% Binding blocked” value [1] was 0.6% and the binding result [1] was “no binding (tested: 10 uM)”.

B2: no binding (tested: 10 uM) [1].

B3: no binding (tested: 10 uM) [1].

B4: no binding (tested: 10 uM) [1].

B5: no binding (tested: 10 uM) [1].

B6: no binding (tested: 10 uM) [1].

B7: no binding (tested: 10 uM peptide in 50 nM G1 Fab) [2]; no binding (tested: 10 uM peptide in 50 nM G1 Fab) [3]; no binding (tested: 10 uM peptide in 50 nM G1 Fab) [4]. B7: no binding (tested: 10 uM peptide in 50 nM G1 Fab) [5]; no binding (tested: 10 uM peptide in 50 nM G1 Fab) [6]; no binding (tested: 10 uM peptide in 50 nM G1 Fab) [7]. For the same binder, the “% of binding blocked by competing peptide” value (shortened to “% of binding blocked”) [8] was 100%, the “% of binding blocked” value [9] was 100% and the “% of binding blocked” value [10] was 100%. The “% of binding blocked” value [11] was 100%, the “% of binding blocked” value [12] was 100% and the “% of binding blocked” value [13] was 100%. For the same binder, the “% of binding blocked” value [14] was 100%, the “% of binding blocked” value [15] was 100% and the “% of binding blocked” value [16] was 100%. For the same binder, the “% of binding blocked” value [17] was about 40%.

— patent US20200331991A1 (Teva, published 2020)
